Assay results published in patent US20260201033A1 (LTZ THERAPEUTICS, published 2026).
Values belong to the binder of their own block, whether it stands above or below them.

What was measured:
[1] = molecular target: T1, Human C-type lectin domain family 5 member A (CLEC5A), endogenous on human monocytes and M0 macrophages (human, UniProt Q9NY25 1-188); test: flow cytometry on human M0 macrophages, anti-human IgG PE
T1 construct: Endogenous CLEC5A on primary human monocytes and monocyte-derived M0 macrophages; also called MDL-1; M0 macrophages (CLEC5A+) cells
T1 sequence: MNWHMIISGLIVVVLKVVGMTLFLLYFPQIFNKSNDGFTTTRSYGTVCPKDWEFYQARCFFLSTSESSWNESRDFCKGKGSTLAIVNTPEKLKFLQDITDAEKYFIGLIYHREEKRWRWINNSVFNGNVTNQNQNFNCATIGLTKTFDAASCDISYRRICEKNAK

[2] = molecular target: T2, Human CLEC5A His Tag protein (ACROBiosystems, Cat #: CLA-H5243) (human, UniProt Q9NY25 28-188, limits assumed); test: ELISA, plate coated with human CLEC5A
T2 construct: Bought protein with a His tag; also called recombinant human CLEC5A protein
T2 sequence: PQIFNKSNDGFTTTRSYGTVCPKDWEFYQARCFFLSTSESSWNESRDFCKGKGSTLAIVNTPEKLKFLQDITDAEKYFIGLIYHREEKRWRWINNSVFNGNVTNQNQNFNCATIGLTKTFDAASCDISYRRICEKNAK

[3] = molecular target: T3, CD79b on Ramos cells and on endogenous B cells of human PBMCs (human, UniProt P40259 29-229); test: cell-based or functional assay
T3 sequence (looked up): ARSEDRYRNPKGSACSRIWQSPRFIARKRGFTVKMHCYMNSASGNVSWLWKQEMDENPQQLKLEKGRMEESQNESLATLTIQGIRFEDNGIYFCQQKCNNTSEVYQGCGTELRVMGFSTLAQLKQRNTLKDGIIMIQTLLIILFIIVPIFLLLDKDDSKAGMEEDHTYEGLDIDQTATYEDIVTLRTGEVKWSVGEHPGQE

[4] = molecular target: T3, CD79b on Ramos cells and on endogenous …; test: cell-based or functional assay; remark: listed apart in the source
[5] = molecular target: T3, CD79b on Ramos cells and on endogenous …; test: cell-based or functional assay; remark: listed apart in the source
[6] = molecular target: T3, CD79b on Ramos cells and on endogenous …; test: cell-based or functional assay; remark: listed apart in the source
[7] = molecular target: T3, CD79b on Ramos cells and on endogenous …; test: cell-based or functional assay; remark: listed apart in the source
[8] = molecular target: T3, CD79b on Ramos cells and on endogenous …; test: cell-based or functional assay; remark: listed apart in the source
[9] = molecular target: T4, recombinant human CLEC5A, His Tag (ACROBiosystems, Cat #: NC1-H52H4) (human, UniProt Q9NY25 28-188); test: BLI, antibody 10 ug/ml captured on anti-human IgG Fc probe, analyte hCLEC5a; table row hCLEC5a 0.78 nM; all four rows print the same value
T4 construct: Analyte of the BLI assay; Its catalogue number differs from that of the ELISA antigen; also called human CLEC5A (BLI analyte)
T4 sequence: T2 sequence

[10] = molecular target: T4, recombinant human CLEC5A, His Tag …; test: BLI, antibody 10 ug/ml captured on anti-human IgG Fc probe, analyte hCLEC5a; table row hCLEC5a 1.56 nM; all four rows print the same value
[11] = molecular target: T4, recombinant human CLEC5A, His Tag …; test: BLI, antibody 10 ug/ml captured on anti-human IgG Fc probe, analyte hCLEC5a; table row hCLEC5a 3.12 nM; all four rows print the same value
[12] = molecular target: T4, recombinant human CLEC5A, His Tag …; test: BLI, antibody 10 ug/ml captured on anti-human IgG Fc probe, analyte hCLEC5a; table row hCLEC5a 6.25 nM; all four rows print the same value
[13] = molecular target: T5, mouse CLEC5A (R&D Systems, Cat #: 8438-CL-050) (mouse, UniProt Q9R007 26-190, limits assumed); test: ELISA, plate coated with mouse CLEC5A
T5 construct: Bought protein; also called recombinant mouse CLEC5A protein
T5 sequence: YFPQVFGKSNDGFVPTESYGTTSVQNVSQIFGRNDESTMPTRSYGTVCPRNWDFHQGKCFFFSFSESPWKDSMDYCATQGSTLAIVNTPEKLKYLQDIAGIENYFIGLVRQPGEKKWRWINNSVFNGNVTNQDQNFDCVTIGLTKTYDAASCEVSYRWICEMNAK

B1: 9E11, chimeric rabbit/human IgG1 anti-CLEC5A antibody (Fc-silenced) (antibody, V domains shown)
VH: QSLEESGGGLVQPEGSLTLTCTASGFDLNNYYYMCWVRQAPGKGLEWIACTHAGSSSSSYYARWAKGRFTISKTSSTTVTLQMTSLTAADTATYFCARHDRDYDDMDLWGPGTLVTVSS
VL: NIVMTQTTSPVSAVVGGTITINCQASQSIEYGYLSWYQQKPGQPPKLLIFYASKLASGVPSRFSGSGSGTQFTLTISGVQPDDAATYFCLYGYFDDYSGAAFGGGTEVVVK
notes: also called ch9E11
EC50 [1]: 1590 pM

B3: 6G9, chimeric rabbit/human IgG1 anti-CLEC5A antibody (Fc-silenced) (antibody, V domains shown)
VH: QSLEESGGDLVKPGASLTLTCTASGFSFTSNKYMCWVRQAPGKGPEWIACIYVGDGNTYYASWAKGRFTISKTSSTTVTLQMTSLTVADTATYFCARGGDYSIGGGGFASNLWGPGTLVTVSS
VL: AFELTQTPSSVEAAVGGTVTINCQASESISNFLAWYRQKPGQPPKLLIYRASTLASGVSSRFKGSGSGTEFTLTISDLEPADGASYYCQSYYGTSSTGHNVFGGGTEVVVK
notes: also called ch6G9
EC50 [1]: 6840 pM

B4: CD79b/5C7 (1+1 B) Fc-optimized (bispecific antibody, human IgG1, kappa)
heavy 1: EQQLVETGGGLIQPGGSLRLSCAASGFTINIDYWISWVRQAPGKGLEWIGIIDPGDGTTYFAIWVSGRFTISFDNSKNTVYLQMNSLRAEDTAVYFCVREFSASAYQYDLWGPGTLVTVSSASTKGPSVFPLAPSSKSTSGGTAALGCLVKDYFPEPVTVSWNSGALTSGVHTFPAVLQSSGLYSLSSVVTVPSSSLGTQTYICNVNHKPSNTKVDKKVEPKSCDKTHTCPPCPAPELLAGPSVFLFPPKPKDTLMISRTPEVTCVVVDVSHEDPEVKFNWYVDGVEVHNAKTKPREEQYNSTYRVVSVLTVLHQDWLNGKEYKCKVSNKALPLPEEKTISKAKGQPREPQVYTLPPSRDELTKNQVSLSCAVKGFYPSDIAVEWESNGQPENNYKTTPPVLDSDGSFFLVSKLTVDKSRWQQGNVFSCSVMHEALHNHYTQKSLSLSPGK
heavy 2: DIQMTQSPSSLSASVGDRVTITCQASESVDRNNRLAWFQQKPGKPPKLLIYTTSTLASGVPSRFSGSGSGTDFTLTISSLQPEDVATYYCAGYRGAHTDGDAFGGGTKVEIKGGGGSGGGGSGGGGSGGGGSEQQLVESGGGLVKPGGSLRLSCAASGFSFSRSSYMCWVRQAPGKGLEWIGCLSVGDGHTYYASWAKGRFTISKDSAKNSVYLQMNSLRAEDTAVYFCARAPSYSGDGGHGYDLWGPGTLVTVSSDKTHTCPPCPAPELLAGPSVFLFPPKPKDTLMISRTPEVTCVVVDVSHEDPEVKFNWYVDGVEVHNAKTKPREEQYNSTYRVVSVLTVLHQDWLNGKEYKCKVSNKALPLPEEKTISKAKGQPREPQVYTLPPSRDELTKNQVSLWCLVKGFYPSDIAVEWESNGQPENNYKTTPPVLDSDGSFFLYSKLTVDKSRWQQGNVFSCSVMHEALHNHYTQKSLSLSPGK
light: ELVMTQSPATLSVSPGERATLSCRASEDIENYLAWYQQKPGQPPRLLIYRASTLSSGVPARFSGSGSGTEFTLTISSLQSEDFAVYYCQQGYRNSNVDNPFGGGTKVEIKRTVAAPSVFIFPPSDEQLKSGTASVVCLLNNFYPREAKVQWKVDNALQSGNSQESVTEQDSKDSTYSLSSTLTLSKADYEKHKVYACEVTHQGLSSPVTKSFNRGEC
IC50 (nM), Ramos cell killing by PBMCs (test 2), Donor 431 [3]: 0.0253 nM | IC50 (nM), Ramos cell killing by PBMCs (test 3), Donor 281 [4]: 0.0123 nM | IC50 (nM), Ramos cell killing by PBMCs (test 3), Donor 367 [4]: 0.841 nM | IC50 (nM), killing of endogenous B cells by PBMCs, Donor 367 [5]: 0.0253 nM | IC50 (nM), killing of endogenous B cells by PBMCs, Donor 431 [5]: 0.0253 nM | IC50 (nM), Ramos cell killing by M0 macrophages, Donor 431 [6]: 0.003 nM | IC50 (nM), Ramos cell killing by M1 macrophages, Donor 431 [7]: 0.006 nM | IC50 (nM), Ramos cell killing by M2 macrophages, Donor 431 [8]: 0.001 nM

B5: CD79b/5C7 (2+2 B) Fc-silenced (bispecific antibody, human IgG1, kappa, L234A L235A)
heavy: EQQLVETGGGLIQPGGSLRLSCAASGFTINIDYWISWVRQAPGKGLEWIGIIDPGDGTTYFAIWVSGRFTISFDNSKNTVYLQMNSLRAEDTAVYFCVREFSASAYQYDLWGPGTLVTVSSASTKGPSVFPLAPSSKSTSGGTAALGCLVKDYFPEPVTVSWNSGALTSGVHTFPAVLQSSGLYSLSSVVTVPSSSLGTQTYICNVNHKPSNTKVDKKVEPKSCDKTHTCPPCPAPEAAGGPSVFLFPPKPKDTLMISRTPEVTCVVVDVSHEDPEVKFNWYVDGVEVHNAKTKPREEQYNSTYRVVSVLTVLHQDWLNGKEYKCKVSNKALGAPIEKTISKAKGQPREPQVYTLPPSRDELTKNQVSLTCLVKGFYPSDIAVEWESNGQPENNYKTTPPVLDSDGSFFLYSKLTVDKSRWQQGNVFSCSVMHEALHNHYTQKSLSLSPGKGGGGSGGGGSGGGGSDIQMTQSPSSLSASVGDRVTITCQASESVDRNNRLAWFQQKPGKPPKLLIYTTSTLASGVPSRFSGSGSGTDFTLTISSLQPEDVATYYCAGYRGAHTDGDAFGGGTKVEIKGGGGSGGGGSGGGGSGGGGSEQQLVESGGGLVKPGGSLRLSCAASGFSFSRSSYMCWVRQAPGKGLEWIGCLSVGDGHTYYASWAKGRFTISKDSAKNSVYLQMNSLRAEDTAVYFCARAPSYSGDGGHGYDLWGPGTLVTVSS
light: B4 light
IC50 (nM), Ramos cell killing by PBMCs (test 2), Donor 431 [3]: 0.0062 nM | IC50 (nM), Ramos cell killing by PBMCs (test 3), Donor 022 [4]: 0.131 nM | IC50 (nM), Ramos cell killing by PBMCs (test 3), Donor 281 [4]: 0.043 nM | IC50 (nM), Ramos cell killing by PBMCs (test 3), Donor 367 [4]: 0.0643 nM | IC50 (nM), killing of endogenous B cells by PBMCs, Donor 023 [5]: 0.0231 nM | IC50 (nM), killing of endogenous B cells by PBMCs, Donor 367 [5]: 0.00617 nM | IC50 (nM), killing of endogenous B cells by PBMCs, Donor 431 [5]: 0.00617 nM | IC50 (nM), Ramos cell killing by M0 macrophages, Donor 022 [6]: 0.002 nM | IC50 (nM), Ramos cell killing by M0 macrophages, Donor 100 [6]: 0.0008 nM | IC50 (nM), Ramos cell killing by M0 macrophages, Donor 159 [6]: 0.001 nM | IC50 (nM), Ramos cell killing by M0 macrophages, Donor 161 [6]: 0.0008 nM | IC50 (nM), Ramos cell killing by M0 macrophages, Donor 233 [6]: 0.002 nM | IC50 (nM), Ramos cell killing by M1 macrophages, Donor 100 [7]: 0.0007 nM | IC50 (nM), Ramos cell killing by M1 macrophages, Donor 431 [7]: 0.0014 nM | IC50 (nM), Ramos cell killing by M2 macrophages, Donor 022 [8]: 0.001 nM | IC50 (nM), Ramos cell killing by M2 macrophages, Donor 100 [8]: 0.0004 nM | IC50 (nM), Ramos cell killing by M2 macrophages, Donor 233 [8]: 0.002 nM | IC50 (nM), Ramos cell killing by M2 macrophages, Donor 431 [8]: 0.0009 nM

B6: 3A7, chimeric rabbit/human IgG1 anti-CLEC5A antibody (Fc-silenced) (antibody, V domains shown)
VH: QSLEESGGDLVKPGASLTLTCTASGFSFSGMYWICWVRQAPGKGLEWIACIYTGSSTTGYASWAKGRFTISKTSSTTVTLQMTSLTAADTATHFCASPYGDSSHYRGLNLWGPGTLVTVSS
VL: AVVMTQTPASVEAAVGGTVTINCQASQRINNYLSWFQQKPGQPPKLLIYGAATLASGVPSRFKGSGSGTEYTLTISDLEPADAATYYCQCTYGIPSSNYGFGGGTEVVVK
notes: also called ch3A7
EC50 [2]: 710 pM | EC50 [1]: 960 pM | Kd [9]: 63.1 pM | koff [9]: 8.96e-05 s⁻¹ | kon [9]: 1.42e+06 M⁻¹ s⁻¹ | Kd [10]: 63.1 pM | koff [10]: 8.96e-05 s⁻¹ | kon [10]: 1.42e+06 M⁻¹ s⁻¹ | Kd [11]: 63.1 pM | koff [11]: 8.96e-05 s⁻¹ | kon [11]: 1.42e+06 M⁻¹ s⁻¹ | Kd [12]: 63.1 pM | koff [12]: 8.96e-05 s⁻¹ | kon [12]: 1.42e+06 M⁻¹ s⁻¹

B8: DX244, reference anti-CLEC5A antibody (antibody, human IgG1, V domains shown)
VH: QIQLVQSGPELKKPGETVKISCKASGYTFTIYAMNWVKQAPGKGLEWMGWINTDTGEPTYADDFKGRFAFSLETSASTAYLQINNLKNEDMATYFCARSSEVFYDYRFDYWGQGTALTVSS
VL: DIQMTQSPSSLSASLGERVSLTCRASQDIGSSLNWLQQEPDGTIKRLIYATSNLDSGVPKRFSGSRSGSDYSLTISSLESEDFVHYYCLQYASSPFTFGSGTKLEIKR
notes: also called benchmark DX244
EC50 [1]: 2800 pM

Further binders by falling EC50 [1], results first:

EC50 [13]: 184 pM | EC50 [1]: 3990 pM
B9: 14A2, chimeric rabbit/human IgG1 anti-CLEC5A antibody (Fc-silenced) (antibody, V domains shown)
VH: QSLEESGGGLVKPEGSLTLTCKASGFTLSSYYYMCWVRQAPGKGLEWIACIYAGSSGTTVYASWAKGRFTISKTSSTTVTLQMTSLTAADTATYLCARKLGDVGYGHTTYFNLWGPGTLVTVSS
VL: ALVMTQTPSSVSAAVGGTVTIKCQASQNIYSTLAWYQQKPGQPPKLLMFDASDLASGVPSRFKGSGSGTEYTLTISDLEPADAATYFCQTYYDSGSDDLNAFGGGTEVVVK
notes: also called ch14A2

EC50 [2]: 610 pM | EC50 [1]: 2570 pM
B7: 13E6, chimeric rabbit/human IgG1 anti-CLEC5A antibody (Fc-silenced) (antibody, V domains shown)
VH: QSLEESGGDLVKPGGTLTLTCTASGFSFSSSYWLCWVRQAPGKGLEWIACIYGGSSRGTYYASWAKGRFTISKTSSTTVTLQMTSLTAADTATYFCASHTYTYPRFSPYFNLWGPGTLVSVSS
VL: AFEMTQTPASVSPAVGGTVSINCQASEDIESSLAWYQQKPGQPPKLLIYDASDLESGVPSRFKGSGSGTEYTLTISGVQPADAATYFCQSAYYTGSADNTFGGGTEVVVK
notes: also called ch13E6

EC50 [2]: 160 pM | EC50 [1]: 2060 pM
B2: 7G10, chimeric rabbit/human IgG1 anti-CLEC5A antibody (Fc-silenced) (antibody, V domains shown)
VH: QQQLEESGGGLVKPGGTLTLTCKASGFSFSSGYDMCWVRQAPGKGLEWIACIYGGRSDNVYYARWAKGRFTISKTSSTTVTLQMTSLTAADTATYFCARDYLYRGYIGGGYGRSNLWGPGTLVTVSS
VL: DVVMTQTPASVSAAVGGTVTINCRASEDIENCLAWYQQKPGQPPKLLIYQASKLPSGVPSRFSGSGSGTEYTLTISDLEPDDGATYYCQNPDYMRNTDNLFGGGTEVVVK
notes: also called ch7G10
